Laboratory results taken from US20110311569A1.
Where two headings read alike, the source gives them in different places.

Tests used:
Test in all cases: cell-based or functional assay
[1] = target: JR-FL Env N160K/E168K mutant (HIV-1 isolate JR-FL)
[2] = target: HIV-1 SF162 Env (parental) (HIV-1 isolate SF162) (UniProt P19551)
[3] = target: SF162 Env with clade F consensus V3 region (HIV-1 isolate SF162; HIV-1 clade F consensus) (UniProt P19551)
[4] = target: SF162 Env with V3 substitution T13H (HIV-1 isolate SF162) (UniProt P19551)
[5] = target: SF162 Env with V3 substitution D25E (HIV-1 isolate SF162) (UniProt P19551)
[6] = target: SF162 Env with CRF01_AE consensus V3 region (HIV-1 isolate SF162; HIV-1 CRF01_AE consensus) (UniProt P19551)
[7] = target: SF162 Env with CRF02_AG consensus V3 region (HIV-1 isolate SF162; HIV-1 CRF02_AG consensus) (UniProt P19551)
[8] = target: SF162 Env with GKV at positions 167-169 (HIV-1 isolate SF162) (UniProt P19551)
[9] = target: SF162 Env with clade H consensus V3 region (HIV-1 isolate SF162; HIV-1 clade H consensus) (UniProt P19551)
[10] = target: SF162 Env with clade A1 consensus V3 region (HIV-1 isolate SF162; HIV-1 clade A1 consensus) (UniProt P19551)
[11] = target: SF162 Env with clade C consensus V3 region (HIV-1 isolate SF162; HIV-1 clade C consensus) (UniProt P19551)
[12] = target: SF162 Env with V3 substitution A22T (HIV-1 isolate SF162) (UniProt P19551)
[13] = target: SF162 Env with clade B consensus V3 region (identical to that of JR-FL) (HIV-1 isolate SF162; HIV-1 clade B consensus) (UniProt P19551)
[14] = target: HIV-1 JR-FL Env (parental) (HIV-1 isolate JR-FL)
[15] = target: chimeric SF162 Env with the V1/V2 domain of JR-FL (HIV-1 isolate SF162; HIV-1 isolate JR-FL) (UniProt P19551)
[16] = target: SF162 Env with NI at positions 160-161 (HIV-1 isolate SF162) (UniProt P19551)
[17] = target: HIV-1 SF162 Env (parental) (HIV-1 isolate SF162) (UniProt P19551); remark: listed apart in the source
[18] = target: SF162 Env with NI at positions 160-161 and GKV at positions 167-169 (HIV-1 isolate SF162) (UniProt P19551)
[19] = target: SF162 Env with GKV at positions 167-169 (HIV-1 isolate SF162) (UniProt P19551); remark: listed apart in the source
[20] = target: chimeric JR-FL Env with the V1/V2 domain of SF162 (HIV-1 isolate JR-FL; HIV-1 isolate SF162) (UniProt P19551)
[21] = target: JR-FL Env with GK at positions 167-168 (HIV-1 isolate JR-FL)
[22] = target: SF162 Env with clade B consensus V3 region (identical to that of JR-FL) (HIV-1 isolate SF162; HIV-1 clade B consensus) (UniProt P19551); remark: listed apart in the source

## monoclonal antibody 2909
[1]
  ND50 (pseudovirus neutralization): < 0.04 ng/mL
  neutralization potency relative to 2F5: > 140 fold
  neutralization potency relative to 2G12: > 500 fold
  neutralization potency relative to IgG-b12: 20 fold
  neutralization potency relative to a pool of potent V3-specific mAbs: 4000 fold
  percent neutralization at 20 ng/ml (% neutralization at 20 ng/ml): > 99
[2]
  ND50 (pseudovirus neutralization): 5.8e-05 µg/mL
[3]
  ND50 (pseudovirus neutralization): 0.0076 µg/mL
  ND50 ratio (fold increase in ND50 over the SF162 sequence): 131 fold
[4]
  fold increase in ND50 over SF162: 8.3 fold
[5]
  fold increase in ND50 over SF162: 2.3 fold
[6]
  ND50 (pseudovirus neutralization): > 20 µg/mL
  ND50 ratio (fold increase in ND50 over the SF162 sequence): > 344000 fold
[7]
  ND50 (pseudovirus neutralization): 0.037 µg/mL
  ND50 ratio (fold increase in ND50 over the SF162 sequence): 637 fold
[8]
  fold increase in 2909 concentration required for 50% neutralization, over SF162: > 1000 fold
[9]
  ND50 (pseudovirus neutralization): 0.17 µg/mL
  ND50 ratio (fold increase in ND50 over the SF162 sequence): 2930 fold
[10]
  ND50 (pseudovirus neutralization): 0.0064 µg/mL
  ND50 ratio (fold increase in ND50 over the SF162 sequence): 110 fold
[11]
  ND50 (pseudovirus neutralization): 0.0048 µg/mL
  ND50 ratio (fold increase in ND50 over the SF162 sequence): 83 fold
[12]
  fold increase in ND50 over SF162: 46 fold
[13]
  ND50 (pseudovirus neutralization): 0.051 µg/mL
  ND50 ratio (fold increase in ND50 over the SF162 sequence): 879 fold
[14]
  ND50 (pseudovirus neutralization): > 10 µg/mL
[15]
  ND50 (pseudovirus neutralization): > 10 µg/mL
[16]
  ND50 (pseudovirus neutralization): > 10 µg/mL
[17]
  ND50 (pseudovirus neutralization): 0.00049 µg/mL
[18]
  ND50 (pseudovirus neutralization): > 10 µg/mL
[19]
  ND50 (pseudovirus neutralization): 0.54 µg/mL
[20]
  ND50 (pseudovirus neutralization): 0.065 µg/mL
[21]
  ND50 (pseudovirus neutralization): > 10 µg/mL
[22]
  ND50 (pseudovirus neutralization): 0.145 µg/mL
